Bridges are numbered along the chain shown (N, C = ends). Where no end group is shown, it is not given here. [ ]: non-standard residue; d: D form. The star is where a group is joined. Acetyl(2-(4-imidazolyl)) = O=C(Cc1c[nH]cn1)*; Aib = CC(C)(N)C(=O)O
T1: human GIP receptor (human, UniProt P48546 22-466)
T1 sequence (looked up): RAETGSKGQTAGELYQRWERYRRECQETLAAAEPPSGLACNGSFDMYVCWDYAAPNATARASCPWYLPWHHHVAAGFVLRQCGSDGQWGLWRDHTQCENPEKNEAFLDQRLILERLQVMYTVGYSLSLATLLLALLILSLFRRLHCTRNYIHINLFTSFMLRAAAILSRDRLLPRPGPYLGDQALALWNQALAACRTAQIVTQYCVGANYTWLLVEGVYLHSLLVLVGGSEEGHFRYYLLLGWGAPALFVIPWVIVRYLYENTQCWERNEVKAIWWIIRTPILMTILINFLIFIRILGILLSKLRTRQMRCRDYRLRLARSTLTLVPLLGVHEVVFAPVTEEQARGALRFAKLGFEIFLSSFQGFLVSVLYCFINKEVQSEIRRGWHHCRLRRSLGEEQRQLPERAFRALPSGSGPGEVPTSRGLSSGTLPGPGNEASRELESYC


Legend:
FIGURE 5 = experiment: FIGURE 5
Excerpt: Table printed on a drawing sheet, FIGURE 5

FIGURE 13 = experiment: FIGURE 13
Excerpt: Table printed on a drawing sheet, FIGURE 13
W1 means Week 1 and W12 means Week 12.
First reader's note: The first row gives the substance together with its dose (mg/kg), and each result cell holds the value with its ± deviation in the same cell.

human GLP-1 receptor = human GLP-1 receptor (human, UniProt P43220 24-463); experiment: cell-based or functional assay
human GCG receptor = human GCG receptor (human, UniProt P47871 26-477); experiment: cell-based or functional assay
Sequence of human GCG receptor (P47871 26-477): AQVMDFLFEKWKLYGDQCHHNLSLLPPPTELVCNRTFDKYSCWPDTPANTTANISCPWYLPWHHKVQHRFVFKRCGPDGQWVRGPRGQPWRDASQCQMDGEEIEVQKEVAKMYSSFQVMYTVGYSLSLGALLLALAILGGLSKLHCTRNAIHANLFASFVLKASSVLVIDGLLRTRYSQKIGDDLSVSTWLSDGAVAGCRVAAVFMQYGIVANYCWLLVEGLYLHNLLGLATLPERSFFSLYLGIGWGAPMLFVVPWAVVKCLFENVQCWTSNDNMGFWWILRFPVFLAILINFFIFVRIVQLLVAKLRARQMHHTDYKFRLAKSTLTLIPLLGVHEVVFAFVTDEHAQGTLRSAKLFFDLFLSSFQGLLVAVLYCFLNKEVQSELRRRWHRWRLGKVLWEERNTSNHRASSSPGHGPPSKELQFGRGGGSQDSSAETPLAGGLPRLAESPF

human GIP receptor = target: T1, human GIP receptor; experiment: cell-based or functional assay

Molecule	Dose-normalized Cmax (ng/mL/mg) (FIGURE 5)	Tmax (hr) (FIGURE 5)	Cmax (FIGURE 13) [ng/mL]	Tmax (FIGURE 13) [h]	AUC0-168h (FIGURE 13) [ng·h/mL]	In vitro activity relative to native peptide (%) vs. GLP-1 (human GLP-1 receptor) [%]	In vitro activity relative to native peptide (%) vs. Glucagon (human GCG receptor) [%]	In vitro activity relative to native peptide (%) vs. GIP (human GIP receptor) [%]
LONG-ACTING CONJUGATE OF SEQ ID NO: 42 0.01 mg/kg (N=5) (Y[Aib]QGTFTSDYSKYLDEKRAKEFVQWLLDHHPSSGQPPPSC; lactam 16-20; not fully specified (residue 40); also: long-acting carrier conjugate)	30.73 (13.34) ng/mL/mg	31.20 (10.733) hr						
LONG-ACTING CONJUGATE OF SEQ ID NO: 42 0.01 mg/kg (Y[Aib]QGTFTSDYSKYLDEKRAKEFVQWLLDHHPSSGQPPPSC; lactam 16-20; not fully specified (residue 40); also: long-acting carrier conjugate)			31.22 ± 13.47	48.00 ± 12.00				
LONG-ACTING CONJUGATE OF SEQ ID NO: 42 0.02 mg/kg (Y[Aib]QGTFTSDYSKYLDEKRAKEFVQWLLDHHPSSGQPPPSC; lactam 16-20; not fully specified (residue 40); also: long-acting carrier conjugate)				48.00 ± 22.22	11770.3 ± 7192.4			
Y[Aib]QGTFTSDYSKYLDECRAKEFVQWLLDHHPSSGQPPPS (bridge 16-20) [triple agonist of SEQ ID NO: 21]						17.8	267	22.7
[Acetyl(2-(4-imidazolyl))]GQGTFTSDLSIQYEEEAQQDFVEWLKDTGPSSGAPPPSHG [triple agonist of SEQ ID NO: 20]						< 0.1	< 0.1	< 0.1
H[Aib]QGTFTSDCSKYLDSRAAQDFVQWLLDGGPSSGAPPPS [triple agonist of SEQ ID NO: 26]						64.5	0.2	< 0.1
H[Aib]QGTFTSDYSKYLDEKACKEFVQWLLAQ (bridge 16-20) [triple agonist of SEQ ID NO: 31]						135	2.2	2.4
H[Aib]QGTFTSDYSKYLDEKAQKEFVQWLLDTC (bridge 16-20) [triple agonist of SEQ ID NO: 30]						142	0.7	0.8
H[Aib]QGTFTSDYSKYLDEKAAKEFVQWLLNTC (bridge 16-20) [triple agonist of SEQ ID NO: 29]						38.5	6	< 0.1
H[Aib]QGTFTSDYSKYLDEKRAQEFVCWLLAQKGKKNDWKHNIT [triple agonist of SEQ ID NO: 28]						17.2	1.6	< 0.1
H[Aib]QGTFTSDYSIAMDEIHQKDFVNWLLAQKC (bridge 16-20) [triple agonist of SEQ ID NO: 33]						24.5	< 0.1	10.4
Y[Aib]QGTFTSDYSKYLDECRAKEFVQWLKNGGPSSGAPPPS (bridge 16-20) [triple agonist of SEQ ID NO: 24]						41.2	9.3	< 0.1
Y[Aib]QGTFTSDYSKYLDECRAKEFVQWLLAQKGKKNDWKHNIT (bridge 16-20) [triple agonist of SEQ ID NO: 23]						4.01	9.3	< 0.1
Y[Aib]QGTFTSDYSKCLDEKRAKEFVQWLLDHHPSSGQPPPS (bridge 16-20) [triple agonist of SEQ ID NO: 22]						20.1	140	59.7
H[Aib]QGTFTSDCSKYLDERAAQDFVQWLLDGGPSSGAPPPS [triple agonist of SEQ ID NO: 25]						82.6	0.1	< 0.1
H[Aib]QGTFTSDYSKYLDEKACKDFVQWLLDGGPSSGAPPPS (bridge 16-20) [triple agonist of SEQ ID NO: 32]						151	1.7	8.8
H[Aib]QGTFTSDVSSYLLGQAAKQFIAWLVKGGGPSSGAPPPSC [triple agonist of SEQ ID NO: 3]						1.8	< 0.1	< 0.1
H[Aib]QGTFTSDYSKYLDERACQDFVQWLLDQGGPSSGAPPPS [triple agonist of SEQ ID NO: 27]						83.1	0.8	0.9
[Acetyl(2-(4-imidazolyl))]GQGTFTSDLSIQYDSEHQRDFIEWLKDTGPSSGAPPPSHG [triple agonist of SEQ ID NO: 19]						< 0.1	< 0.1	< 0.1

Reference: patent US20230302148A1, “PHARMACEUTICAL COMPOSITION COMPRISING LONG-ACTING CONJUGATE OF TRIPLE GLUCAGON/GLP-1/GIP RECEPTOR AGONIST” (HANMI PHARM. CO., LTD., priority 2020, published 2023)
